Experimental data: publication doi:10.1101/2021.04.27.441613 (bioRxiv, 2021)

Molecular target: the molecule itself
Assay: SEC + other: SDS-PAGE

B1: dLanYFP (other)
chain: MSLPATHELHIFGSFNGVDFDMVGRGTGNPNDGYEELNLKSTKGALQFSPWILVPQIGYGFHQYLPFPDGMSPFQAAMKDGSGYQVHRTMQFEDGASLTSNYRYTYEGSHIKGEFQVKGTGFPADGPVMTNSLTAADWCVTKMLYPNDKTIISTFDWTYTTGSGKRYQSTVRTTYTFAKPMAANILKNQPMFVFRKTELKHSKTELNFKEWQKAFTDVM
**Q.** Which “stoichiometry N” value does the source give for B1 here?
**A.** 2
